{"source": "the supplement of paper PMC12042874", "note": "± gives the uncertainty stated by the source."}
{"experiment": "amyloid nucleation score (Sup35N fusion, yeast selection) (log enrichment); library NNK1; higher = more nucleation; inactive = no reads after selection", "procedure,_shortened": "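For the nucleation score, DiMSum gave the log enrichment of output over input reads, centred on the mode score of non-aggregating sequences. Psi-negative yeast expressing Sup35N fused to peptides of 20 random codons were induced with 100 μM copper sulfate for 24 hours and grown 7 days at 30°C on medium lacking adenine and uracil. Input and output plasmid inserts were Illumina-sequenced, and sequences with under 100 input reads were excluded.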"}
{"substance": "AMRGYCRAFQIWVWICGLSL", "amyloid nucleation score": "0.027 ± 0.86"}
{"substance": "AMWLFACGLWLLLPRYIGRC", "amyloid nucleation score": "-0.485 ± 1.2"}
{"substance": "ANGILV", "amyloid nucleation score": "0.499 ± 0.28"}
{"substance": "ANSVQG", "amyloid nucleation score": "0.9 ± 0.73"}
{"substance": "ANTLRKMNLLSELVLNLLTG", "amyloid nucleation score": "3.3 ± 0.14"}
{"substance": "ANWCF", "amyloid nucleation score": "-0.213 ± 0.5"}
{"substance": "APAAIINFLDPHICARMAMF", "amyloid nucleation score": "-0.513 ± 1.3"}
{"substance": "APDDSRQCSETESSGFLTHW", "amyloid nucleation score": "0.366 ± 0.47"}
{"substance": "APEFFNSDRASIAKF", "amyloid nucleation score": "-0.558 ± 0.77"}
{"substance": "APMNVLEVTFSYSADLTVVV", "amyloid nucleation score": "0.167 ± 0.79"}
{"substance": "APSWYRSLMRSSA", "amyloid nucleation score": "0.159 ± 0.34"}
{"substance": "APVVGTNSTTGEYSLTPSSW", "amyloid nucleation score": "0.741 ± 0.41"}
{"substance": "AQARWCWRLH", "amyloid nucleation score": "0.963 ± 0.69"}
{"substance": "AQQLLIGDDDLDTAVEFDDM", "amyloid nucleation score": "-0.509 ± 0.86"}
{"substance": "AQTWGESKTLPENLANYDAY", "amyloid nucleation score": "0.241 ± 0.56"}
{"substance": "AQVNLIPNLRETLYDPAISR", "amyloid nucleation score": "0.665 ± 0.55"}
{"substance": "ARATS", "amyloid nucleation score": "-0.53 ± 0.52"}
{"substance": "ARRASVEFSYSTLERGMWRC", "amyloid nucleation score": "1.9 ± 0.18"}
{"substance": "ARRGVVNPYLSVEFFFRRGL", "amyloid nucleation score": "0.493 ± 0.68"}
{"substance": "ARSTSALQL", "amyloid nucleation score": "-1.97 ± 1.8"}
{"substance": "ARVGFTLT", "amyloid nucleation score": "-0.265 ± 0.87"}
{"substance": "ASAFFRVWSLNKIICYEVSD", "amyloid nucleation score": "4.56 ± 0.051"}
{"substance": "ASFRNRPCVQCPGLCILRLS", "amyloid nucleation score": "0.002 ± 0.24"}
{"substance": "ASGDMSDWISWLGSMRCKIR", "amyloid nucleation score": "-0.082 ± 1"}
{"substance": "ASLTFFS", "amyloid nucleation score": "0.283 ± 0.76"}
{"substance": "ASNAWCMYYMLATGAMEISL", "amyloid nucleation score": "-0.617 ± 0.86"}
{"substance": "ASPMVRISYLNDHKQLKKF", "amyloid nucleation score": "-0.414 ± 0.28"}
{"substance": "ASSCLNSRFGCQRFLGYLWL", "amyloid nucleation score": "0.33 ± 0.39"}
{"substance": "ASSLDLFNWASVWFFNYIGA", "amyloid nucleation score": "-0.887 ± 0.86"}
{"substance": "ASTSYPWKSGVMVGGKLKNP", "amyloid nucleation score": "0.287 ± 0.53"}
{"substance": "ASYMYAPSIFYSERLKWNPS", "amyloid nucleation score": "0.226 ± 0.78"}
{"substance": "ASYTIND", "amyloid nucleation score": "-0.57 ± 1.1"}
{"substance": "ASYYQWLSLFFLTNRPFFGG", "amyloid nucleation score": "-0.809 ± 1.2"}
{"substance": "ATCCNSWIAF", "amyloid nucleation score": "7.035 ± 0.054"}
{"substance": "ATDSWDC", "amyloid nucleation score": "0.278 ± 0.33"}
{"substance": "ATKSRLVNILTGKDEALTGL", "amyloid nucleation score": "-0.684 ± 0.42"}
{"substance": "ATLMYWASSWSCWFTKGTAV", "amyloid nucleation score": "-0.413 ± 0.37"}
{"substance": "ATMCVTLIWCYSSKQRMYKK", "amyloid nucleation score": "1.08 ± 0.15"}
{"substance": "ATMYICTRHSTAYGVFHSFV", "amyloid nucleation score": "0.105 ± 1.2"}
{"substance": "ATSALGCVTHVIMSNILTMN", "amyloid nucleation score": "0.106 ± 0.34"}
{"substance": "ATSPLCCRH", "amyloid nucleation score": "0.022 ± 0.28"}
{"substance": "AVCDKVLRSVEWIFPGLNDS", "amyloid nucleation score": "-0.496 ± 0.51"}
{"substance": "AVEGCVFCWIRCVIRFLV", "amyloid nucleation score": "-0.642 ± 0.69"}
{"substance": "AVGIANFTAPKCWLDNVGP", "amyloid nucleation score": "0.085 ± 0.59"}
{"substance": "AVHICYNYRSYSI", "amyloid nucleation score": "0.5 ± 0.95"}
{"substance": "AVQKVRCRWN", "amyloid nucleation score": "-0.009 ± 0.23"}
{"substance": "AVRDDMDY", "amyloid nucleation score": "-0.059 ± 0.22"}
{"substance": "AVVERFHL", "amyloid nucleation score": "-0.132 ± 0.39"}
{"substance": "AWIDCVSTNTTLDIPSLGP", "amyloid nucleation score": "0.402 ± 0.24"}
{"substance": "AWLNRSYRMLHPMWGVCMDM", "amyloid nucleation score": "1.26 ± 0.85"}
{"substance": "AYCVH", "amyloid nucleation score": "0.202 ± 0.59"}
{"substance": "AYILRWFFTSECRSVQSTSK", "amyloid nucleation score": "-0.105 ± 0.45"}
{"substance": "AYLGASREIYCYGPMYYMLP", "amyloid nucleation score": "2.97 ± 0.098"}
{"substance": "AYPLKTFIFYHGLMIWFNAM", "amyloid nucleation score": "0.827 ± 0.84"}
{"substance": "AYSDVYQLFYLKYMFCNWLL", "amyloid nucleation score": "2.89 ± 0.26"}
{"substance": "CACKLVQSIYLCESLGHPRS", "amyloid nucleation score": "5.73 ± 0.06"}
{"substance": "CAKLCKASHSVFIDDRRCVR", "amyloid nucleation score": "-1.02 ± 2.4"}
{"substance": "CALVYGWTEHDV", "amyloid nucleation score": "1.44 ± 0.64"}
{"substance": "CANGLLRDLVQAI", "amyloid nucleation score": "0.547 ± 0.61"}
{"substance": "CARSVCKSQYSSMSMPYLIV", "amyloid nucleation score": "0.782 ± 0.39"}
{"substance": "CCLHSAFSNNARILFMALRS", "amyloid nucleation score": "0.861 ± 0.84"}
{"substance": "CDGDASAYDTRGTALSA", "amyloid nucleation score": "inactive"}
{"substance": "CDGPCALQS", "amyloid nucleation score": "0.263 ± 0.51"}
{"substance": "CDKKWIASQSMVGRRTMV", "amyloid nucleation score": "inactive"}
{"substance": "CEGCSWFSCSF", "amyloid nucleation score": "0.749 ± 0.48"}
{"substance": "CEGKGWFANITYSDFLLIMR", "amyloid nucleation score": "-0.462 ± 0.97"}
{"substance": "CEMKASGLKYVHRFNSIPVM", "amyloid nucleation score": "0.984 ± 0.57"}
{"substance": "CEMMDNPFLLLRVKGSKVRS", "amyloid nucleation score": "inactive"}
{"substance": "CERLKT", "amyloid nucleation score": "0.784 ± 0.35"}
{"substance": "CERQNYVP", "amyloid nucleation score": "0.326 ± 1.2"}
{"substance": "CFFASVHPLCYRGVSGVGVF", "amyloid nucleation score": "-1.28 ± 2.1"}
{"substance": "CFFRTDGLDTPYGAYLVRSF", "amyloid nucleation score": "2.31 ± 0.2"}
